The source of these data is the supplement of paper PMC10219994.

B1: library; a variant is named by its letters at N, in order (parent)
chain: GAGACCGCAACTGAAAAGTTGTGGNNNNNATAGTGAGTCGCTGCCTGCAAAGACACAACT

± gives the standard deviation of the averaged measurements.

This series covers variants of B1. In words: ligation selection enrichment (abundance after / before one-round selection) (fold); higher = more template-directed ligation activity. The note with it: with T7Psub CACGGAUGCUAAUACGACUCACUAUA; MgCl2 25 mM; 42 °C; 4 h; pH 8.5. The method, boiled down:
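Two independent reactions combined a T7-transcribed RNA ligase library with five randomized core positions (0.75 μM) and RNA substrate (6 μM) in 50 mM EPPS pH 8.5, 25 mM MgCl2, run for 4 h at 42 °C. The ligated products were sequenced on a MiSeq, and only reads with quality ≥30 at all randomized positions were counted. Enrichment is the abundance after ligation divided by the abundance before ligation.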
Take ACTTG: the ligation selection enrichment worked out at 0.918 ± 0.18.
With ACTTA, the ligation selection enrichment worked out at 0.172 ± 0.0078.
On to ACTTT, for which the ligation selection enrichment amounted to 0.465 ± 0.065.
For the variant ACTTC, the ligation selection enrichment was determined as 0.192 ± 0.049.
In the case of GGAGC it was 0.135 ± 0.022; in that of GGAGG, 0.371 ± 0.084.
With GGAGT, the ligation selection enrichment came out at 0.165 ± 0.0095.
In the case of GGAGA it was 0.285 ± 0.02; in that of AGCAT, 3.55 ± 0.68.
On to AGCAG, for which the ligation selection enrichment was determined as 0.325 ± 0.015.
With AGCAA, the ligation selection enrichment stood at 0.342 ± 0.056.
On to AGCAC, for which the ligation selection enrichment stood at 0.319 ± 0.037.
Consider TGAAT, for which the ligation selection enrichment was 3.36 ± 0.95.
For the variant TGAAA, the ligation selection enrichment stood at 0.326 ± 0.022.
Regarding TGAAC, the ligation selection enrichment was determined as 0.25 ± 0.0069.
In the case of TGAAG it was 0.271 ± 0.03; in that of TGATT, 2.4 ± 0.61.
Regarding TGATC, the ligation selection enrichment stood at 0.143 ± 0.062.
In the case of TGATA it was 0.4829 ± 0.0015.
Take TGATG: the ligation selection enrichment is 0.708 ± 0.08.
On to CGAGG, for which the ligation selection enrichment amounted to 0.422 ± 0.029.
For CGAGA, the ligation selection enrichment is 0.348 ± 0.084.
On to CGAGC, for which the ligation selection enrichment was found to be 0.246 ± 0.036.
For the variant CGAGT, the ligation selection enrichment amounted to 1.09 ± 0.25.
Take CGGAA: the ligation selection enrichment is 1.02 ± 0.075.
For CGGAG, the ligation selection enrichment was found to be 0.459 ± 0.021.
On to CGGAT, for which the ligation selection enrichment was 57.6 ± 1.5.
In the case of CGGAC, the ligation selection enrichment was determined as 3.77 ± 0.4.
Then GGGAC, with 30.7 ± 5.3; and GGGAA, with 6.049 ± 0.019.
On to GGGAT, for which the ligation selection enrichment was 167 ± 32.
In the case of GGGAG it was 1.05 ± 0.051; in that of GGCTG, 0.393 ± 0.032.
GGCTC: the ligation selection enrichment was determined as 0.149 ± 0.0062.
Regarding GGCTT, the ligation selection enrichment amounted to 0.164 ± 0.12.
On to GGCTA, for which the ligation selection enrichment worked out at 0.228 ± 0.037.
Consider GGTCT, for which the ligation selection enrichment is 0.471 ± 0.12.
On to GGTCG, for which the ligation selection enrichment was found to be 2.83 ± 0.25.
Regarding GGTCC, the ligation selection enrichment was 0.277 ± 0.02.
Regarding GGTCA, the ligation selection enrichment worked out at 0.9187 ± 0.002.
With CCTTA, the ligation selection enrichment was found to be 0.159 ± 0.004.
CCTTG: the ligation selection enrichment turned out to be 0.874 ± 0.15.
For the variant CCTTT, the ligation selection enrichment stood at 0.455 ± 0.12.
Then CCTTC, with 0.171 ± 0.02.
As for AGGTG, the ligation selection enrichment was 0.279 ± 0.036.
In the case of AGGTA it was 0.41 ± 0.019; in that of AGGTT, 0.245 ± 0.075.
With AGGTC, the ligation selection enrichment was determined as 0.196 ± 0.011.
With CGCTC, the ligation selection enrichment was determined as 0.0791 ± 0.025.
In the case of CGCTG it was 0.141 ± 0.026; in that of CGCTT, 0.126 ± 0.017; in that of CGCTA, 0.127 ± 0.032.
For GCTAC, the ligation selection enrichment turned out to be 0.15 ± 0.04.
In the case of GCTAG it was 0.375 ± 0.11.
GCTAA: the ligation selection enrichment is 0.176 ± 0.0063.
Regarding GCTAT, the ligation selection enrichment turned out to be 0.196 ± 0.035.
Then AGTCC, with 0.157 ± 0.034; and AGTCG, with 3.1 ± 0.045; and AGTCA, with 0.891 ± 0.1.
Take AGTCT: the ligation selection enrichment is 0.506 ± 0.043.
Regarding TGTCA, the ligation selection enrichment was found to be 0.325 ± 0.025.
In the case of TGTCC it was 0.338 ± 0.055.
As for TGTCT, the ligation selection enrichment was determined as 0.335 ± 0.099.
As for TGTCG, the ligation selection enrichment was 0.653 ± 0.0083.
With GGGCC, the ligation selection enrichment is 0.243 ± 0.0042.
Take GGGCG: the ligation selection enrichment was 0.626 ± 0.07.
On to GGGCA, for which the ligation selection enrichment came to 0.298 ± 0.033.
Turning to GGGCT, the ligation selection enrichment was determined as 0.765 ± 0.27.
For the variant AGGAT, the ligation selection enrichment was found to be 95.7 ± 0.79.
Take AGGAG: the ligation selection enrichment came to 0.806 ± 0.1.
In the case of AGGAC it was 14.4 ± 2.2.
Regarding AGGAA, the ligation selection enrichment came out at 2.74 ± 0.034.
CGCCT: the ligation selection enrichment stood at 0.779 ± 0.21.
In the case of CGCCA, the ligation selection enrichment came to 0.146 ± 0.048.
Consider CGCCC, for which the ligation selection enrichment turned out to be 0.161 ± 0.004.
Then CGCCG, with 0.43 ± 0.033.
As to CGCAT, the ligation selection enrichment was found to be 3.7 ± 0.39.
Take CGCAC: the ligation selection enrichment is 0.339 ± 0.028.
In the case of CGCAA it was 0.29 ± 0.03.
For the variant CGCAG, the ligation selection enrichment worked out at 0.2266 ± 0.0013.
CCTAC: the ligation selection enrichment is 0.14 ± 0.03.
Then CCTAT, with 0.149 ± 0.059.
Consider CCTAA, for which the ligation selection enrichment is 0.148 ± 0.0065.
